Substrate: Nc1ncnc2c1ncn2[C@@H]1O[C@H](COP(=O)(O)OP(=O)(O)OP(=O)(O)O)[C@@H](O)[C@H]1O
Experiment: purified protein
Details: 50 mM Tris-HCl pH 8.0, 20 mM MgCl2, 1 mM EDTA, 37 °C

B1: mBcs1 (full-length mouse Bcs1; mBcs1-His) (Mus musculus) (protein)
chain: MPFSDFVLALKDNPYFGAGFGLVGVGTALAMARKGAQLGLVAFRRHYMITLEVPARDRSYAWLLSWLTRHSTRTQHLSVETSYLQHESGRISTKFEFIPSPGNHFIWYQGKWIRVERNRDMQMVDLQTGTPWESVTFTALGTDRKVFFNILEEARALALQQEEGKTVMYTAVGSEWRTFGYPRRRRPLDSVVLQQGLADRIVKDIREFIDNPKWYIDRGIPYRRGYLLYGPPGCGKSSFITALAGELEHSICLLSLTDSSLSDDRLNHLLSVAPQQSLVLLEDVDAAFLSRDLAVENPIKYQGLGRLTFSGLLNALDGVASTEARIVFMTTNYIDRLDPALIRPGRVDLKEYVGYCSHWQLTQMFQRFYPGQAPSLAENFAEHVLKATSEISPAQVQGYFMLYKNDPMGAVHNIESLR
How did the Km turn out when B1 was run?
The Km was 40 µM.
